{"source": "paper PMC9504884", "about": "“Functional Interactions of Kluyveromyces lactis Telomerase Reverse Transcriptase with the Three-Way Junction and the Template Domains of Telomerase RNA”", "experiment_in_all_cases": "EMSA; 1 nM RNA, tRNA competitor; 25 mM Tris-HCl pH 7.5, 50 mM KCl, 1 mM MgCl2, 1 mM DTT, 10% glycerol, 0.1% Triton, 0.5 mg/mL BSA, 1.7 ng/uL yeast tRNA, 1 nM RNA probe; 15 min on ice then 10 min room temperature; gel at 6 C", "key": {"[1]": {"target": "T1, klTRBD klEst2 171-422 (Kluyveromyces lactis, UniProt Q6CSS0 171-422)", "T1 sequence": "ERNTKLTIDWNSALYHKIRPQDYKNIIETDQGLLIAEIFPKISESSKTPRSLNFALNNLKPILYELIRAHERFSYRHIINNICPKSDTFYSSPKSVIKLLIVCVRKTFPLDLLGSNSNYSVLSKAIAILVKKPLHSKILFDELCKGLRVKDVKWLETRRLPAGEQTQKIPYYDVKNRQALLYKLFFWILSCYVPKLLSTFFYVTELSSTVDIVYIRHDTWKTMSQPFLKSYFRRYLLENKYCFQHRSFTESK", "details": "protein: recombinant; tags: N-terminal His-SUMO, TEV-cleaved; label: 5'-32P when probe; hairpin (TBE) with template"}, "[2]": {"target": "T2, klEst2 full-length (TERT) (Kluyveromyces lactis, UniProt Q6CSS0 1-861)", "T2 sequence": "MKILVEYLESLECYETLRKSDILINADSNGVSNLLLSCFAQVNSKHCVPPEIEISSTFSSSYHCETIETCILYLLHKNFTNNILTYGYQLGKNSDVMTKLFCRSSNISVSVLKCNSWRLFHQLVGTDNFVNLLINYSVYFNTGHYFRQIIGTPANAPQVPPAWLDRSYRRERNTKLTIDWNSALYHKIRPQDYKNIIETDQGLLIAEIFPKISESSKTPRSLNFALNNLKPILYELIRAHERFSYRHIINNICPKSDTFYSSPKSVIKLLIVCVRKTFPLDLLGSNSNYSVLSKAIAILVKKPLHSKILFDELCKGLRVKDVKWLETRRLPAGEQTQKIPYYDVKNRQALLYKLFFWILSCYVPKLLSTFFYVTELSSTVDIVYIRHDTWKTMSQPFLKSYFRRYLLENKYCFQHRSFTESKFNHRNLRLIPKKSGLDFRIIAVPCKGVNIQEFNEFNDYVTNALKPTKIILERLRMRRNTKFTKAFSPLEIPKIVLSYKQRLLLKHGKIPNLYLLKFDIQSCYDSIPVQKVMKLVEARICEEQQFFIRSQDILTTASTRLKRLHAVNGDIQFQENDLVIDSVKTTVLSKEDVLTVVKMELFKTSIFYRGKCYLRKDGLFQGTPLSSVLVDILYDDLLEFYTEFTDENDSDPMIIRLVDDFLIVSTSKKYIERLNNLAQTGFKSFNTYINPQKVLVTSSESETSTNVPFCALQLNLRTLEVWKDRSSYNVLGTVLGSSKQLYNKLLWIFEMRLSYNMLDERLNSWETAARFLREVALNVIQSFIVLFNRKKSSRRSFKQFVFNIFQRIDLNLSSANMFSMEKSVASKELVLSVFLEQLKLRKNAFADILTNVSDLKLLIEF", "details": "protein: recombinant; tags: expressed in E. coli; His-SUMO tag described for the TRBD constructs, tag of full-length not clearly stated; label: 5'-32P when probe; hairpin (TBE) with template"}, "[3]": {"target": "T3, klTRBD klEst2 171-404 (Kluyveromyces lactis, UniProt Q6CSS0 171-404)", "T3 sequence": "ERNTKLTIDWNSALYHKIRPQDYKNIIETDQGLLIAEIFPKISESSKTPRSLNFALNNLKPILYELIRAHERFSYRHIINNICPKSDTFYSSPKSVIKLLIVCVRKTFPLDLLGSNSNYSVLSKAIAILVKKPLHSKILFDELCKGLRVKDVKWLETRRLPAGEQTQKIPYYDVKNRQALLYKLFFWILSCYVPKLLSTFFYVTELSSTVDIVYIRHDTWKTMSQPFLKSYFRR", "details": "protein: recombinant; tags: N-terminal His-SUMO, TEV-cleaved; label: 5'-32P when probe; hairpin (TBE) with template"}}, "data": [{"binder": "T + TBE (structured_RNA) RNA: GGUAAGGACCAGUGCCACGAAAGUGGUACUUCAAAUCCGUACACCACAUACCUAAUCAAAACCG", "values": [{"measurement": "binding result", "setting": "[1]", "value": "no binding"}, {"measurement": "binding result", "setting": "[2]", "value": "binds"}, {"measurement": "binding result", "setting": "[3]", "value": "no binding"}]}]}
